Experimental data as given in patent US20250215104A1 (WALDEN BIOSCIENCES, published 2025).
Substitutions are numbered along the chain they refer to.

B1: suPAR_DB01_F03 (scFv, V domains shown)
VH: QVQLVQSGAEVKKPGASVKVSCKASGYTFTSYYMHWVRQAPGQGLEWMGWIDHENGNTIYDQKFQGRVTMTRDTSTSTVYMELSSLRSEDTAVYYCARGYDVDWFVYWGQGTLVTVSS
VL: DIQMTQSPSSLSASVGDRVTITCSARQSVSYMYWYQQKPGKAPKLLIYRTSNLASGVPSRFSGSGSGTDFTLTISSLQPEDFATYYCQQYHSYPPTFGGGTKVEIK
notes: Screened as scFv
B2: suPAR_DB01_G02 (scFv, V domains shown)
VH: B1 VH with T28S, S31D, D61A
VL: B1 VL with Q27S
notes: Screened as scFv
B3: suPAR_DB01_F06 (scFv, V domains shown)
VH: B1 VH with D61A
VL: B1 VL with V29I, A54Q
notes: Screened as scFv
B4: suPAR_DB01_F04 (scFv, V domains shown)
VH: B1 VH with S31D, E54S, D61A
VL: B1 VL with Q27S
notes: Screened as scFv
B5: suPAR_DB01_G01 (scFv, V domains shown)
VH: B1 VH with Y27D, T30S
VL: B1 VL with Q27S
notes: Screened as scFv
B6: suPAR_DB01_F11 (scFv, V domains shown)
VH: B1 VH with N55G, I59S, D61A
VL: B1 VL with S24R, R26S, Q27S
notes: Screened as scFv
B7: suPAR_DB01_F02 (scFv, V domains shown)
VH: B1 VH with S31N, M34V
VL: B1 VL with Q27S
notes: Screened as scFv
B8: suPAR_DB01_F10 (scFv, V domains shown)
VH: B1 VH with N57S, I59S
VL: B1 VL with Q27S
notes: Screened as scFv
B9: suPAR_DB01_F12 (scFv, V domains shown)
VH: B1 VH with Y27F, T28N, F29I, T30K, S31D, M34I, H53P, N57S
VL: B1 VL with S24R
notes: Screened as scFv
B10: suPAR_DB01_F08 (scFv, V domains shown)
VH: B1 VH with S31G, N57S, D61A
VL: B1 VL with S24R
notes: Screened as scFv
B11: suPAR_DB01_F05 (scFv, V domains shown)
VH: B1 VH with T30S, S31N, N55G, N57S
VL: B1 VL with Q27S
notes: Screened as scFv
B12: suPAR_DB04_E05 (scFv, V domains shown)
VH: QVQLVQSGAEVKKPGASVKVSCKASGFNIKDYYIHWVRQAPGQGLEWVGWIDPHSGGTNYAQKFQGRVTMTRDTSTSTVYMELSSLRSEDTAVYYCARGYDVDWFVYWGQGTLVTVSS
VL: B1 VL with Q27S
notes: scFv clone from phage display
B13: suPAR_DB04_H01 (scFv, V domains shown)
VH: B1 VH with T30I, S31G, Y32S, M34V
VL: B1 VL with Q27S, N52S
notes: scFv clone from phage display
B14: suPAR_DB04_F11 (scFv, V domains shown)
VH: B1 VH with Y32H, N55G, I59S, D61A
VL: B1 VL with Q27S
notes: scFv clone from phage display
B15: suPAR_DB04_G04 (scFv, V domains shown)
VH: B1 VH with T28S, M34I, N57S, D61A
VL: B1 VL with R26S
notes: scFv clone from phage display
B16: suPAR_DB04_F10 (scFv, V domains shown)
VH: B1 VH with S31D, E54S, N55G, D61A
VL: B1 VL with Q27S
notes: scFv clone from phage display
B17: suPAR_DB04_F08 (scFv, V domains shown)
VH: B1 VH with Y27G, E54S, N57S, I59S, D61A, K63E
VL: B1 VL with Q27S
notes: scFv clone from phage display
B18: suPAR_DB04_E09 (scFv, V domains shown)
VH: B1 VH with Y27D, S31D, M34I, N57S, I59S
VL: B1 VL with S24R
notes: scFv clone from phage display
B19: suPAR_DB04_G10 (scFv, V domains shown)
VH: B1 VH with S31G, Y100N
VL: B1 VL with S24R, R26S, Q27S
notes: scFv clone from phage display
B20: suPAR_DB04_G12 (scFv, V domains shown)
VH: B1 VH with T30S, S31D, I59S, D61A
VL: B1 VL with Q27S
notes: scFv clone from phage display
B21: suPAR_DB04_G06 (scFv, V domains shown)
VH: B1 VH with Y27D, M34V
VL: B1 VL with R26S
notes: scFv clone from phage display
B22: suPAR_DB04_G02 (scFv, V domains shown)
VH: B1 VH with S31N
VL: B1 VL with Q27S, N52S
notes: scFv clone from phage display
B23: suPAR_DB04_G05 (scFv, V domains shown)
VH: B1 VH with T28N, F29I, S31D, M34I, H53P, N57S
VL: B1 VL with Q27S, A54Q
notes: scFv clone from phage display
B24: suPAR_DB04_E10 (scFv, V domains shown)
VH: B1 VH with T30S, M34F, H53P, E54N, N55T, N57D, D61A
VL: B1 VL with Q27S
notes: scFv clone from phage display
B25: suPAR_DB04_F04 (scFv, V domains shown)
VH: B1 VH with I59S
VL: B1 VL with Q27S
notes: scFv clone from phage display
B26: suPAR_DB04_F05 (scFv, V domains shown)
VH: B1 VH with T30S, S31D, M34V, N55G, N57S, I59S, D61A
VL: B1 VL with V29I
notes: scFv clone from phage display
B27: suPAR_DB04_E12 (scFv, V domains shown)
VH: B1 VH with S31T, H53P, N57S
VL: B1 VL with R26S
notes: scFv clone from phage display
B28: suPAR_DB04_G09 (scFv, V domains shown)
VH: B1 VH with Y27D, F29S, S31T
VL: B1 VL with R26K, Q27S
notes: scFv clone from phage display
B29: suPAR_DB04_F07 (scFv, V domains shown)
VH: B1 VH with S31G, M34V
VL: B1 VL with Q27S
notes: scFv clone from phage display
B30: suPAR_DB04_F06 (scFv, V domains shown)
VH: B1 VH with S31G, I59S, D61A
VL: B1 VL with V29I
notes: scFv clone from phage display
B31: suPAR_DB04_G07 (scFv, V domains shown)
VH: B1 VH with Y27F, T28S, S31T, H53P, D61A
VL: B1 VL with Q27S
notes: scFv clone from phage display
B32: suPAR_DB04_F03 (scFv, V domains shown)
VH: B12 VH with F27Y, N28T, V48M, H54R, G57D, A61G, Q62K, K63N
VL: B1 VL with Q27S
notes: scFv clone from phage display
B33: suPAR_DB04_E11 (scFv, V domains shown)
VH: B1 VH with S31N, M34V
VL: B1 VL
notes: scFv clone from phage display
B34: suPAR_DB04_G08 (scFv, V domains shown)
VH: B1 VH with Y27H, F29L, S31G, M34V
VL: B1 VL with Q27S
notes: scFv clone from phage display
B35: suPAR_DB04_F09 (scFv, V domains shown)
VH: B1 VH with S31N, M34F, I59S
VL: B1 VL with Q27S
notes: scFv clone from phage display
B36: suPAR_DB04_F01 (scFv, V domains shown)
VH: B1 VH with N55G, D61A, Y100D
VL: B1 VL with R26S
notes: scFv clone from phage display
B37: suPAR_DB04_G03 (scFv, V domains shown)
VH: B1 VH with S31G
VL: B1 VL with R26S, Q27S, A54Q
notes: scFv clone from phage display
B38: suPAR_DB04_G11 (scFv, V domains shown)
VH: B12 VH with N28T, I29F, V48M, H54D
VL: B1 VL
notes: scFv clone from phage display

These binders were tested against T1, human soluble urokinase plasminogen activator receptor (hsuPAR) (human, UniProt Q03405 23-303, limits assumed) (assay: BLI (Octet) off-rate screen of scFv).
T1 construct: also called human suPAR; rhuPAR-His
T1 sequence (Q03405 23-303 limits assumed): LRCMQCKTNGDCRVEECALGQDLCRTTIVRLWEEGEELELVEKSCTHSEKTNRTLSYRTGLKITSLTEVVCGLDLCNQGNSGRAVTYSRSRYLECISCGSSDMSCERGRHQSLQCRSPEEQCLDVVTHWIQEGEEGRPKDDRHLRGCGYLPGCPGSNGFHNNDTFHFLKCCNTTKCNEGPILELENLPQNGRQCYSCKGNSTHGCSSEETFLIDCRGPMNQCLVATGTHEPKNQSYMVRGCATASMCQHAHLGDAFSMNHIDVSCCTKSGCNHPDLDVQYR

Row | Binder | koff [s⁻¹]
1 | B1 | 0.00251
2 | B2 | 0.00245
3 | B3 | 0.00267
4 | B4 | 0.00309
5 | B5 | 0.00429
6 | B6 | 0.00293
7 | B7 | 0.004
8 | B8 | 0.00183
9 | B9 | 0.00282
10 | B10 | 0.000505
11 | B11 | 0.00175

What follows are binders tested against T2, cynomolgus soluble urokinase plasminogen activator receptor (cynomolgus suPAR) (cynomolgus, UniProt Q9GK78 23-303, limits assumed) (assay: BLI (Octet) off-rate screen of scFv).
T2 construct: also called cynomolgus uPAR; cynoPLAUR-His
Target sequence in this assay (Q9GK78 23-303 limits assumed): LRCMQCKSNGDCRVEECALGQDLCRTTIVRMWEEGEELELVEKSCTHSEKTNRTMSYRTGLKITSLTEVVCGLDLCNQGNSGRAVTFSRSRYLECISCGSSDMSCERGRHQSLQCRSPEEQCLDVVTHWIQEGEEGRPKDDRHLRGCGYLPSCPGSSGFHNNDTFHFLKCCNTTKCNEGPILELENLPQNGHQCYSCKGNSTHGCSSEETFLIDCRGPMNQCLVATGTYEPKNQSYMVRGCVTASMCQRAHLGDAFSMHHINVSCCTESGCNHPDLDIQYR

Row | Binder | koff [s⁻¹]
12 | B1 | 6.17e-07
13 | B2 | 0.000149
14 | B3 | 4.98e-05
15 | B4 | 4.59e-05
16 | B5 | 0.000152
17 | B6 | 9.02e-05
18 | B7 | 9.84e-05
19 | B8 | 3.88e-05
20 | B9 | 0.000192
21 | B10 | 0.000207
22 | B11 | 4.95e-07

The binders below were run against T3, human soluble urokinase plasminogen activator receptor (hsuPAR) (human, UniProt Q03405 23-303, limits assumed) (assay: off-rate screen of scFv clones (kdis), Octet BLI).
T3 construct: also called human suPAR; rhuPAR-His
T3 sequence (Q03405 23-303 limits assumed): as the sequence (Q03405 23-303 limits assumed) above

Row | Binder | koff [s⁻¹]
23 | B12 | 0.00359
24 | B13 | 0.00127
25 | B14 | 0.0051
26 | B15 | 0.000751
27 | B16 | 0.00412
28 | B17 | 0.00261
29 | B18 | 0.00598
30 | B19 | 0.00322
31 | B20 | 0.00528
32 | B21 | 0.0027
33 | B22 | 0.00185
34 | B23 | 0.00364
35 | B24 | 0.00116
36 | B25 | 0.00394
37 | B26 | 0.00405
38 | B27 | 0.00336
39 | B28 | 0.00359
40 | B29 | 0.00269
41 | B30 | 0.00279
42 | B31 | 0.00424
43 | B32 | 0.00375
44 | B33 | 0.00502
45 | B34 | 0.00317
46 | B35 | 0.00462
47 | B36 | 0.00267
48 | B37 | 0.00119
49 | B38 | 0.00327

What follows are binders tested against T4, cynomolgus soluble urokinase plasminogen activator receptor (cynomolgus suPAR) (cynomolgus, UniProt Q9GK78 23-303, limits assumed) (assay: off-rate screen of scFv clones (kdis), Octet BLI).
T4 construct: also called cynomolgus uPAR; cynoPLAUR-His
Target sequence in this assay (Q9GK78 23-303 limits assumed): as the sequence (Q9GK78 23-303 limits assumed) above

Row | Binder | koff [s⁻¹]
50 | B12 | 3.92e-07
51 | B13 | 0.00104
52 | B14 | 0.000121
53 | B15 | 0.000342
54 | B16 | 0.000274
55 | B17 | 4.31e-05
56 | B18 | 0.000446
57 | B19 | 0.000462
58 | B20 | 8.1e-05
59 | B21 | 0.000208
60 | B22 | 0.000388
61 | B23 | 8.25e-05
62 | B24 | 0.000142
63 | B25 | 0.000174
64 | B26 | 0.000278
65 | B27 | 8.15e-05
66 | B28 | 0.000647
67 | B29 | 3.33e-05
68 | B30 | 0.000195
69 | B31 | 5.96e-07
70 | B32 | 0.000863
71 | B33 | 0.000158
72 | B34 | 0.000203
73 | B35 | 0.000122
74 | B36 | 4.88e-07
75 | B37 | 0.000747
76 | B38 | 0.00021
